Measurements as given in the supplement of paper PMC12855868.

B1: library; numbered along this chain (parent)
chain: MAAAGGARLLRAASAVLGGPAGRWLHHAGSRAGSSGLLRNRGPGGSAEASRSLSVSARARSSSEDKITVHFINRDGETLTTKGKVGDSLLDVVVENNLDIDGFGACEGTLACSTCHLIFEDHIYEKLDAITDEENDMLDLAYGLTDRSRLGCQICLTKSMDNMTVRVPETVADARQSIDVGKTS

Variants of: B1
Test: scaled log2 fold change in cell abundance, elesclomol vs control (0 = silent mean, 1 = nonsense mean) (scaled log2 ratio); higher = higher viability under elesclomol (loss of FDX1 cuproptosis function)
Settings: glucose 10 mM
Protocol: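 Deep mutational scan of full-length human FDX1: a pooled saturation-mutagenesis ORF library (every residue 2-184 mutated to all 19 amino acids plus stop, and silent codons where available) was expressed by lentivirus in FDX1-knockout ABC1 (14 days) or HEK293T (11 days) cells grown with elesclomol (ES) or DMSO control. Variant abundance came from ORF sequencing. The log2 fold change (ES vs control, mean of duplicates) was centred on the silent-variant mean (0) and scaled to the nonsense-variant mean (1). Higher values mean greater viability under ES, i.e. loss of FDX1 function in cuproptosis.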

[1] = with ABC1 FDX1 KO, elesclomol 5 nM, 14 days
[2] = with HEK293T FDX1 KO, elesclomol 40 nM, 11 days
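Also: variant abundance is its share of total variant reads in each endpoint sample, from next-generation sequencing of the integrated ORF PCR-amplified out of genomic DNA.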

R8N
scaled log2 fold change [1]: 0.424
scaled log2 fold change [2]: -0.174

R8F
scaled log2 fold change [1]: -0.388
scaled log2 fold change [2]: -0.798

R8E
scaled log2 fold change [1]: 0.00393
scaled log2 fold change [2]: -0.121

R8A
scaled log2 fold change [1]: 0.393
scaled log2 fold change [2]: 0.0204

R8I
scaled log2 fold change [1]: 0.286
scaled log2 fold change [2]: 0.291

R8H
scaled log2 fold change [1]: 0.292
scaled log2 fold change [2]: -0.336

R8S
scaled log2 fold change [1]: 0.0501
scaled log2 fold change [2]: -0.479

R8L
scaled log2 fold change [1]: -0.0928
scaled log2 fold change [2]: -0.46

R8T
scaled log2 fold change [1]: -0.656
scaled log2 fold change [2]: -0.382

R8C
scaled log2 fold change [1]: 0.116
scaled log2 fold change [2]: 1.05

R8M
scaled log2 fold change [1]: -0.909
scaled log2 fold change [2]: -0.722

R8W
scaled log2 fold change [1]: 0.232
scaled log2 fold change [2]: 0.198

R8D
scaled log2 fold change [1]: 0.629
scaled log2 fold change [2]: -0.108

R8K
scaled log2 fold change [1]: 0.28
scaled log2 fold change [2]: -0.152

R8Q
scaled log2 fold change [1]: 0.308
scaled log2 fold change [2]: -0.248

R8P
scaled log2 fold change [1]: 0.109
scaled log2 fold change [2]: -0.395

R8V
scaled log2 fold change [1]: 0.395
scaled log2 fold change [2]: 0.881

R8Y
scaled log2 fold change [1]: 0.407
scaled log2 fold change [2]: 0.189

A4L
scaled log2 fold change [1]: -0.0228
scaled log2 fold change [2]: 0.193

A4S
scaled log2 fold change [1]: 0.221
scaled log2 fold change [2]: 0.988

A4N
scaled log2 fold change [1]: 0.0756
scaled log2 fold change [2]: -0.335

A4I
scaled log2 fold change [1]: 0.158
scaled log2 fold change [2]: 0.102

A4G
scaled log2 fold change [1]: -0.52
scaled log2 fold change [2]: -0.212

A4W
scaled log2 fold change [1]: 0.154
scaled log2 fold change [2]: -0.542

A4K
scaled log2 fold change [1]: 0.11
scaled log2 fold change [2]: 0.267

A4M
scaled log2 fold change [1]: 0.0396
scaled log2 fold change [2]: -0.34

A4C
scaled log2 fold change [1]: 0.0627
scaled log2 fold change [2]: -1.09

A4Q
scaled log2 fold change [1]: -0.35

A4R
scaled log2 fold change [1]: -0.535
scaled log2 fold change [2]: -1.29

A4T
scaled log2 fold change [1]: 0.364
scaled log2 fold change [2]: 0.164

A4E
scaled log2 fold change [1]: -0.03
scaled log2 fold change [2]: -0.0483

A4Y
scaled log2 fold change [1]: 0.257
scaled log2 fold change [2]: 0.669

A4V
scaled log2 fold change [1]: -0.0619
scaled log2 fold change [2]: -0.566

A4F
scaled log2 fold change [1]: -0.326
scaled log2 fold change [2]: 0.068

A4D
scaled log2 fold change [1]: 0.12
scaled log2 fold change [2]: -0.0733

G6V
scaled log2 fold change [1]: -0.0163
scaled log2 fold change [2]: 0.974

G6E
scaled log2 fold change [1]: 0.0669

G6W
scaled log2 fold change [1]: 0.149
scaled log2 fold change [2]: 0.125

G6M
scaled log2 fold change [1]: -0.159
scaled log2 fold change [2]: -0.651

G6K
scaled log2 fold change [1]: 0.0797
scaled log2 fold change [2]: -0.166

G6H
scaled log2 fold change [1]: 0.23
scaled log2 fold change [2]: -1

G6C
scaled log2 fold change [1]: 0.339
scaled log2 fold change [2]: 0.86

G6A
scaled log2 fold change [1]: 0.239
scaled log2 fold change [2]: -0.652

G6P
scaled log2 fold change [1]: 0.13
scaled log2 fold change [2]: 0.0736

G6R
scaled log2 fold change [1]: 0.173
scaled log2 fold change [2]: 0.123

G6S
scaled log2 fold change [1]: -0.502
scaled log2 fold change [2]: -0.676

G6Y
scaled log2 fold change [1]: -0.0292
scaled log2 fold change [2]: 0.639

G6F
scaled log2 fold change [1]: 0.153
scaled log2 fold change [2]: -0.294

G6L
scaled log2 fold change [1]: 0.106
scaled log2 fold change [2]: 0.412

G6N
scaled log2 fold change [1]: 0.371
scaled log2 fold change [2]: 0.29

G6Q
scaled log2 fold change [1]: 0.208
scaled log2 fold change [2]: -0.0414

G6D
scaled log2 fold change [1]: -0.00796
scaled log2 fold change [2]: -0.86

G6I
scaled log2 fold change [1]: 0.0452
scaled log2 fold change [2]: -0.31

L9I
scaled log2 fold change [1]: -0.993
scaled log2 fold change [2]: -0.482

L9C
scaled log2 fold change [1]: 0.282
scaled log2 fold change [2]: -0.0336

L9F
scaled log2 fold change [1]: -0.0603
scaled log2 fold change [2]: 0.0924

L9E
scaled log2 fold change [1]: 0.282
scaled log2 fold change [2]: -0.224

L9D
scaled log2 fold change [1]: 0.403
scaled log2 fold change [2]: -0.529

L9G
scaled log2 fold change [1]: 0.0757
scaled log2 fold change [2]: 1.11

L9H
scaled log2 fold change [1]: -0.458
scaled log2 fold change [2]: 0.226

A2Y
scaled log2 fold change [1]: -0.115
scaled log2 fold change [2]: -0.115

A2W
scaled log2 fold change [1]: -0.098
scaled log2 fold change [2]: -0.566

G5E
scaled log2 fold change [1]: -0.0118
scaled log2 fold change [2]: 0.75

G5V
scaled log2 fold change [1]: 0.268
scaled log2 fold change [2]: -0.396

G5Y
scaled log2 fold change [1]: -0.325
scaled log2 fold change [2]: 0.00599

G5T
scaled log2 fold change [1]: -0.0306
scaled log2 fold change [2]: 0.915

G5M
scaled log2 fold change [1]: 0.245
scaled log2 fold change [2]: -0.441

G5Q
scaled log2 fold change [1]: 0.0157
scaled log2 fold change [2]: -0.646

G5A
scaled log2 fold change [1]: -0.65
scaled log2 fold change [2]: 0.164

G5R
scaled log2 fold change [1]: -0.43
scaled log2 fold change [2]: -0.244

G5S
scaled log2 fold change [1]: 0.203
scaled log2 fold change [2]: -0.121

G5H
scaled log2 fold change [1]: 0.507
scaled log2 fold change [2]: 1.08

G5I
scaled log2 fold change [1]: 0.0847
scaled log2 fold change [2]: -0.0288

G5F
scaled log2 fold change [1]: 0.228
scaled log2 fold change [2]: 0.695

G5W
scaled log2 fold change [1]: 0.225
scaled log2 fold change [2]: 0.578

G5L
scaled log2 fold change [1]: 0.0231
scaled log2 fold change [2]: -0.373

G5D
scaled log2 fold change [1]: 0.153
scaled log2 fold change [2]: 0.63

G5P
scaled log2 fold change [1]: 0.0147
scaled log2 fold change [2]: -0.46

G5N
scaled log2 fold change [1]: 0.381
scaled log2 fold change [2]: 0.127

G5K
scaled log2 fold change [1]: 0.104
scaled log2 fold change [2]: 0.00379

A3N
scaled log2 fold change [1]: -0.349
scaled log2 fold change [2]: -0.21

A3E
scaled log2 fold change [1]: 0.299
scaled log2 fold change [2]: 1.21

A3K
scaled log2 fold change [1]: 0.135
scaled log2 fold change [2]: 0.17

A3H
scaled log2 fold change [1]: 0.204
scaled log2 fold change [2]: -0.0465

A3F
scaled log2 fold change [1]: -0.338
scaled log2 fold change [2]: 0.0034

A3G
scaled log2 fold change [1]: 0.242
scaled log2 fold change [2]: -0.188

A3T
scaled log2 fold change [1]: 0.122
scaled log2 fold change [2]: -0.0717

A3M
scaled log2 fold change [1]: -0.131
scaled log2 fold change [2]: 0.396

A3S
scaled log2 fold change [1]: 0.514
scaled log2 fold change [2]: -0.0887

A3L
scaled log2 fold change [1]: -0.261
scaled log2 fold change [2]: 0.507

A3Q
scaled log2 fold change [1]: 0.292
scaled log2 fold change [2]: -0.249

A3I
scaled log2 fold change [1]: 0.134
scaled log2 fold change [2]: -0.0748

A3D
scaled log2 fold change [1]: 0.186
scaled log2 fold change [2]: 0.572

A3C
scaled log2 fold change [1]: 0.227
scaled log2 fold change [2]: 0.756

A3P
scaled log2 fold change [1]: 0.16
scaled log2 fold change [2]: -0.173

A3V
scaled log2 fold change [1]: 0.0935
scaled log2 fold change [2]: 0.00813

A3R
scaled log2 fold change [1]: 0.464
scaled log2 fold change [2]: -0.63

A3W
scaled log2 fold change [1]: 0.38
scaled log2 fold change [2]: 0.562

A3Y
scaled log2 fold change [1]: -0.181
scaled log2 fold change [2]: 0.561

A7W
scaled log2 fold change [1]: 0.0847
scaled log2 fold change [2]: 0.227

A7S
scaled log2 fold change [1]: 0.0146
scaled log2 fold change [2]: 0.154

A7V
scaled log2 fold change [1]: -0.5
scaled log2 fold change [2]: 0.903

A7M
scaled log2 fold change [1]: -0.526
scaled log2 fold change [2]: 0.892

A7I
scaled log2 fold change [1]: 0.0041
scaled log2 fold change [2]: -0.412

A7Q
scaled log2 fold change [1]: -0.0571

A7Y
scaled log2 fold change [1]: 0.0823
scaled log2 fold change [2]: 0.506

A7R
scaled log2 fold change [1]: 0.122

A7F
scaled log2 fold change [1]: 0.0991
scaled log2 fold change [2]: 0.612

A7T
scaled log2 fold change [1]: 0.268

A7G
scaled log2 fold change [1]: 0.124
scaled log2 fold change [2]: -0.098

A7E
scaled log2 fold change [1]: 0.407

A7N
scaled log2 fold change [1]: -0.22
scaled log2 fold change [2]: 0.0857

A7K
scaled log2 fold change [1]: 0.136
scaled log2 fold change [2]: -0.253

A7D
scaled log2 fold change [1]: 0.0271
scaled log2 fold change [2]: 0.843

A7C
scaled log2 fold change [1]: 0.0253
scaled log2 fold change [2]: 0.515

A7H
scaled log2 fold change [1]: 0.443
scaled log2 fold change [2]: 0.0712

A7P
scaled log2 fold change [1]: 0.316

A7L
scaled log2 fold change [1]: 0.0503
scaled log2 fold change [2]: 0.262
